Patent publication US20210403601A1 (FAPON BIOTECH, published 2021)
Residue numbers refer to the chain shown, from its start.

B1: Mutation 1-1 (antibody, V domains shown)
VH: QVQLQQPGAELVKPGASVRLSCQTSVDTFTTYYIYWVKQRPGEGLEWIGGINPTSNPVFNEKFKSKATLTVDTSSSTAYMQLSSLTSVDSAVYYCTRSIVRRGYYFDYWGQGTALTVSS
VL: DIQMTQTTSSLSASLGDRVTISCRASQDINNYVNWYQQKPDGTIKLLIYYTSRLQSGVPSRFSGSGSGTDYSLTIANLEQEDIATYFCQQDDTIPITFGAGTKVELKR
notes: Mutation 1 background; CDRs built
B2: Mutation 1-17 (antibody, V domains shown)
VH: QVQLQQPGAELVKPGASVRLSCQTSVNTFTTYYIYWVKQRPGEGLEWIGGLNPTSGGPVFNEKFKSKATLTVDTSSSTAYMQLSSLTSVDSAVYYCTRSLIRRGYYFDYWGQGTALTVSS
VL: B1 VL with V33I, Q55N, V58L, I94L, I96L
notes: as for B1
B3: Mutation 1-26 (antibody, V domains shown)
VH: B2 VH with T30S
VL: B1 VL with N30Q, V33L, Q55N, V58L, I94L, I96L
notes: as for B1
B4: Mutation 1-20 (antibody, V domains shown)
VH: B1 VH with D27E, I51L, V100I
VL: B1 VL with N30Q, V33L, Q55N, V58I, I96L
notes: as for B1
B5: Mutation 1-29 (antibody, V domains shown)
VH: B1 VH with D27E, I51L, V100I
VL: B1 VL with V33I, Q55N, V58I, I96V
notes: as for B1
B6: Mutation 1-25 (antibody, V domains shown)
VH: B2 VH with N27E, L51I, I101V
VL: B1 VL with Q55H, V58L, I94L
notes: as for B1
B7: Mutation 1-24 (antibody, V domains shown)
VH: B2 VH with N27E, T30S, L51V, I101L
VL: B1 VL with N30Q, V58L, I94L, I96V
notes: as for B1
B8: Mutation 1-6 (antibody, V domains shown)
VH: B1 VH with T30S, I51V, I99L, V100L
VL: B1 VL with N30Q, Q55N, V58I, I94L, I96V
notes: as for B1
B9: Mutation 1-60 (antibody, V domains shown)
VH: B2 VH with L51V, I101L
VL: B1 VL with N30Q, V33I, Q55H, I94L, I96V
notes: as for B1
B10: Mutation 1-22 (antibody, V domains shown)
VH: B2 VH with L51I, L100V, I101V
VL: B1 VL with N30Q, V33I, Q55H, I94V
notes: as for B1
B11: Mutation 1-31 (antibody, V domains shown)
VH: B2 VH with L100V, I101V
VL: B1 VL with Q55H, I94V
notes: as for B1
B12: Mutation 1-50 (antibody, V domains shown)
VH: B2 VH with T30S, L51V, L100V
VL: B1 VL with N30Q, V33L, V58L, I94V, I96V
notes: as for B1
B13: Mutation 1-46 (antibody, V domains shown)
VH: B2 VH with N27D, T30S, L100I, I101V
VL: B1 VL with N30Q, V33I, Q55N, V58I
notes: as for B1
B14: Mutation 1-27 (antibody, V domains shown)
VH: B1 VH with D27N, I51V, V100L
VL: B1 VL with V33L, V58I, I96V
notes: as for B1
B15: Mutation 1-30 (antibody, V domains shown)
VH: B2 VH with T30S, L51I, L100V, I101L
VL: B1 VL with N30Q, I94V, I96L
notes: Mutation 1 background; CDRs built; CDR-VL3 cell printed VL, read as V/L
B16: Mutation 1-42 (antibody, V domains shown)
VH: B1 VH with D27E, T30S, I99L, V100L
VL: B1 VL with N30Q, V58L, I94L, I96L
notes: as for B1
B17: Mutation 1-40 (antibody, V domains shown)
VH: B2 VH with N27D, T30S, L100V, I101V
VL: B1 VL with N30Q, V33I, Q55H, I94V
notes: as for B1
B18: Mutation 1-32 (antibody, V domains shown)
VH: B2 VH with N27D, T30S, L51V, L100V
VL: B1 VL with N30Q, V33L, Q55N, I94V, I96V
notes: as for B1
B19: Mutation 1-57 (antibody, V domains shown)
VH: B1 VH with D27E, T30S, I51V, I99V, V100L
VL: B1 VL with V33L, I94V, I96V
notes: as for B1
B20: Mutation 1-23 (antibody, V domains shown)
VH: B2 VH with N27D, T30S, L100V
VL: B1 VL with V33I, Q55N, I94V, I96L
notes: as for B1
B21: Mutation 1-47 (antibody, V domains shown)
VH: B1 VH with I51V, V100I
VL: B1 VL with V33I, Q55N, V58L, I96V
notes: as for B1
B22: Mutation 1-39 (antibody, V domains shown)
VH: B2 VH with L51I, L100V, I101L
VL: B1 VL with V33L, I94V, I96L
notes: as for B1
B23: Mutation 1-2 (antibody, V domains shown)
VH: B1 VH with D27E, T30S, I51L, V100I
VL: B1 VL with N30Q, V33L, V58L, I96L
notes: as for B1
B24: Mutation 1-16 (antibody, V domains shown)
VH: B2 VH with T30S, L51I, I101V
VL: B1 VL with N30Q, V33I, Q55N, I94L
notes: as for B1
B25: Mutation 1-12 (antibody, V domains shown)
VH: B1 VH with T30S, I51V, I99V, V100L
VL: B1 VL with N30Q, Q55H, V58I, I94V, I96V
notes: as for B1
B26: Mutation 1-18 (antibody, V domains shown)
VH: B1 VH with I51V, V100L
VL: B1 VL with N30Q, V58I, I96V
notes: as for B1
B27: Mutation 1-52 (antibody, V domains shown)
VH: B2 VH with N27E, I101V
VL: B1 VL with N30Q, V33I, Q55H, V58I, I94L
notes: as for B1
B28: Mutation 1-28 (antibody, V domains shown)
VH: B1 VH with T30S
VL: B1 VL with N30Q, V33I, Q55H, V58I
notes: Mutation 1 background; CDRs built; also called Mutation 148
B29: Mutation 1-48 (antibody, V domains shown)
VH: B1 VH with D27E, T30S, I99V, V100L
VL: B1 VL with N30Q, I94V, I96L
notes: as for B1
B30: Mutation 1-4 (antibody, V domains shown)
VH: B2 VH with T30S, L51I, L100V, I101V
VL: B1 VL with N30Q, V33I, Q55H, I94V
notes: as for B1
B31: Mutation 1-54 (antibody, V domains shown)
VH: B1 VH with D27N, I51L, V100L
VL: B1 VL with N30Q, Q55N, I96V
notes: as for B1
B32: Mutation 1-34 (antibody, V domains shown)
VH: B2 VH with N27D, T30S, I101V
VL: B1 VL with N30Q, V33I, Q55H, V58L, I94L
notes: as for B1
B33: Mutation 1-36 (antibody, V domains shown)
VH: B1 VH with D27E, T30S, V100L
VL: B1 VL with N30Q, V58I, I96L
notes: as for B1
B34: Mutation 1-10 (antibody, V domains shown)
VH: B2 VH with T30S, L51I, L100I, I101V
VL: B1 VL with N30Q, V33I
notes: as for B1
B35: Mutation 1-5 (antibody, V domains shown)
VH: B2 VH with L100V
VL: B1 VL with V33I, Q55H, V58L, I94V, I96L
notes: as for B1
B36: Mutation 1-21 (antibody, V domains shown)
VH: B2 VH with T30S, L51V, L100V, I101L
VL: B1 VL with V33L, I94V, I96V
notes: as for B1

Molecular target: T1, Taq DNA polymerase (Thermus aquaticus, UniProt P19821 1-832)
T1 construct: also called Taq enzyme; Taq DNA enzyme
T1 sequence (P19821 whole entry): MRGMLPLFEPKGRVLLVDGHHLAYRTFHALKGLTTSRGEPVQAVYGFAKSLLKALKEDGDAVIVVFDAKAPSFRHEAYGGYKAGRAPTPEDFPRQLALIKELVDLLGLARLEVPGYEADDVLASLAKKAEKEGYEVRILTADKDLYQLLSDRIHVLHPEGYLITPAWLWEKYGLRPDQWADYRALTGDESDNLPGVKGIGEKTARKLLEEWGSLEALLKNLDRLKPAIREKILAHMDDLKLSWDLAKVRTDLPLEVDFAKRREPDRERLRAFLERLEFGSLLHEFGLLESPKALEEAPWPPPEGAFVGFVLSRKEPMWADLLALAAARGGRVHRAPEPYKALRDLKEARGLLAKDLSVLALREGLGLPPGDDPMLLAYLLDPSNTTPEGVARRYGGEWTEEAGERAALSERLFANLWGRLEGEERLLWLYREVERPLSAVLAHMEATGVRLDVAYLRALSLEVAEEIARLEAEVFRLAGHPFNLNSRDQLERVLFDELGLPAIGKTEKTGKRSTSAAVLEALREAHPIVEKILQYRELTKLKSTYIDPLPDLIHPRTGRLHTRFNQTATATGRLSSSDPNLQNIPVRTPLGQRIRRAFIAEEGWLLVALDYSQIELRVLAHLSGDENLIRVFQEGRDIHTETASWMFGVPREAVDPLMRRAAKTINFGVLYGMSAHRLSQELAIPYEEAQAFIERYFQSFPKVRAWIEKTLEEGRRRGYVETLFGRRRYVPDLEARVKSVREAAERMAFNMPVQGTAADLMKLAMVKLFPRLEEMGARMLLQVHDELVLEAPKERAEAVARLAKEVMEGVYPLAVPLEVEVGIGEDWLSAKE
Assay: AMC sensor, antibody immobilised

Binder	Kd	koff	kon
B1	0.491 nM	1.58e-05 s⁻¹	32200 M⁻¹ s⁻¹
B2	0.398 nM	1.36e-05 s⁻¹	34000 M⁻¹ s⁻¹
B3	0.852 nM	2.89e-05 s⁻¹	34000 M⁻¹ s⁻¹
B4	0.728 nM	6.43e-05 s⁻¹	88300 M⁻¹ s⁻¹
B5	0.0314 nM	1.13e-06 s⁻¹	36100 M⁻¹ s⁻¹
B6	0.678 nM	4.57e-05 s⁻¹	67300 M⁻¹ s⁻¹
B7	0.199 nM	1.12e-05 s⁻¹	56400 M⁻¹ s⁻¹
B8	0.808 nM	3.41e-05 s⁻¹	42100 M⁻¹ s⁻¹
B9	0.0314 nM	2.66e-06 s⁻¹	84600 M⁻¹ s⁻¹
B10	0.384 nM	3.7e-05 s⁻¹	97200 M⁻¹ s⁻¹
B11	0.85 nM	5.38e-05 s⁻¹	63300 M⁻¹ s⁻¹
B12	0.593 nM	3.02e-05 s⁻¹	50800 M⁻¹ s⁻¹
B13	0.655 nM	2.87e-05 s⁻¹	43800 M⁻¹ s⁻¹
B14	0.028 nM	2.03e-06 s⁻¹	72400 M⁻¹ s⁻¹
B15	0.911 nM	4.49e-05 s⁻¹	49300 M⁻¹ s⁻¹
B16	0.803 nM	3.75e-05 s⁻¹	46700 M⁻¹ s⁻¹
B17	0.615 nM	4.7e-05 s⁻¹	76400 M⁻¹ s⁻¹
B18	0.281 nM	8.8e-06 s⁻¹	31300 M⁻¹ s⁻¹

Binder	Kd	koff	kon
B19	0.362 nM	2.49e-05 s⁻¹	69000 M⁻¹ s⁻¹
B20	0.913 nM	6.41e-05 s⁻¹	70200 M⁻¹ s⁻¹
B21	0.739 nM	4.67e-05 s⁻¹	63200 M⁻¹ s⁻¹
B22	0.457 nM	2.2e-05 s⁻¹	48100 M⁻¹ s⁻¹
B23	0.285 nM	1.42e-05 s⁻¹	49700 M⁻¹ s⁻¹
B24	0.223 nM	1.45e-05 s⁻¹	65100 M⁻¹ s⁻¹
B25	0.022 nM	2.05e-06 s⁻¹	93400 M⁻¹ s⁻¹
B26	0.677 nM	4.5e-05 s⁻¹	66400 M⁻¹ s⁻¹
B27	0.698 nM	2.37e-05 s⁻¹	34000 M⁻¹ s⁻¹
B28	0.402 nM	2.61e-05 s⁻¹	65000 M⁻¹ s⁻¹
B29	0.384 nM	3.72e-05 s⁻¹	97900 M⁻¹ s⁻¹
B30	0.719 nM	2.75e-05 s⁻¹	38200 M⁻¹ s⁻¹
B31	0.273 nM	1.01e-05 s⁻¹	37200 M⁻¹ s⁻¹
B32	0.987 nM	6.17e-05 s⁻¹	62600 M⁻¹ s⁻¹
B33	0.768 nM	3.85e-05 s⁻¹	50200 M⁻¹ s⁻¹
B34	0.384 nM	3.76e-05 s⁻¹	98000 M⁻¹ s⁻¹
B35	0.873 nM	7.78e-05 s⁻¹	89100 M⁻¹ s⁻¹
B36	0.0664 nM	5.96e-06 s⁻¹	89800 M⁻¹ s⁻¹
